# Reference: the DeepSol protein solubility set
# Test: soluble on expression in E. coli; label from the status in PepcDB or PDB records
row,Sequence,soluble on expression in E. coli
1,GSHMTPPHNYLAVIKVVGIGGGGVNAVNRMIEQGLKGVEFIAINTDAQALLMSDADVKLDVGRDSTRGLGAGADPEVGRKAAEDAKDEIEELLRGADMVFVTAGEGGGTGTGGAPVVASIARKLGALTVGVVTRPFSFEGKRRSNQAENGIAALRESCDTLIVIPNDRLLQMGDAAVSLMDAFRSADEVLLNGVQGITDLITTPGLINVDFADVKGIMSGAGTALMGIGSARGEGRSLKAAEIAINSPLLEASMEGAQGVLMSIAGGSDLGLFEINEAASLVQDAAHPDANIIFGTVIDDSLGDEVRVTVIAAGFDVSGPGRKPVMGETGGAHRIESAKAGKLTSTLFEPVDAVSVPLHTNGATLSIGGDDDDVDVPPFMRR,soluble
2,GSKCKCSRKGPKIRYSDVKKLEMKPKYPHCEEKMVIITTKSVSRYRGQEHCLHPKLQSTKRFIKWYNAWNEKRRVYEE,soluble
3,GSMEPAMEPETLEARINRATNPLNKELDWASINGFCEQLNEDFEGPPLATRLLAHKIQSPQEWEAIQALTVLETCMKSCGKRFHDEVGKFRFLNELIKVVSPKYLGSRTSEKVKNKILELLYSWTVGLPEEVKIAEAYQMLKKQGIVKS,soluble
4,GSMGDTKEQRILRYVQQNAKPGDPQSVLEAIDTYCTQKEWAMNVGDAKGQIMDAVIREYSPSLVLELGAYCGYSAVRMARLLQPGARLLTMEMNPDYAAITQQMLNFAGLQDKVTILNGASQDLIPQLKKKYDVDTLDMVFLDHWKDRYLPDTLLLEKCGLLRKGTVLLADNVIVPGTPDFLAYVRGSSSFECTHYSSYLEYMKVVDGLEKAIYQGPSSPDKS,soluble
5,GSMPHIKGHEGDPCLRSSDCIDGFCCARHFWTKICKPVLHQGEVCTKQRKKGSHGLEIFQRCDCAKGLSCKVWKDATYSSKARLHVCQKI,soluble
6,GSQEEDLPRPSISAEPGTVIPLGSHVTFVCRGPVGVQTFRLERESRSTYNDTEDVSQASPSESEARFRIDSVSEGNAGPYRCIYYKPPKWSEQSDYLELLVKEAAA,soluble
7,GSQGHDTVQPNFQQDKFLGRWYSAGLASNSSWFREKKAVLYMAKTVVAPSTEGGLNLTSTFLRKNQCETKIMVLQPAGAPGHYTYSSPHSGSIHSVSVVEANYDEYALLFSRGTKGPGQDFRMATLYSRTQTLKDELKEKFTTFSKAQGLTEEDIVFLPQPDKCIQE,soluble
8,GSSIFDIYVVTADYLPLGAEQDAITLREGQYVEVLDAAHPLRWLVRTKPTKSSPSRQGWVSPAYLDRRLKL,soluble
9,GSTIAPEEHYTPEEASSREETAWDTAAEEVELLAADGAVHNQELFLECTTSPLIFASAMLNFGVHQILDTLCELAPQPHGRESDERAVEAATGAFDSSREVTDEFSGVVFKVQAGMDKNHRDSLAFMRVVSGEFDRGMQVTHAQSGRSFSTKYALTVFGRTRSTVESAFPGDIVGLVNAGSLAPGDTIFAGRKVQYPPMPQFAPEHFRTLRAKSLGKYKQFRKALDQLAAEGVVQILKNDARGDAAPVMAAVGPMQFEVMMARMQNEYNVETVADPIPYSVARRTTPETATELAKQRGVEIFTRTDGELVALFGDKWKLAFIEKEHPEFELLPMVAD,not soluble
10,GTLDTTWKEATLPQVKAMLEKDTGKVSGDTVTYSGKTVHVVAAAVLPGFPFPSFEVHDKKNPTLEIPAGATVDVTFINTNKGFGHSFDITKKGPPYAVMPVIDPIVAGTGFSPVPKDGKFGYTNFTWHPTAGTYYYVCQIPGHAATGQFGKIVVK,soluble
11,GVGRLDDLKRSPLFQNVPEDAMREALKVVTERNFQPDELVVEQDAEGEALHLVTTGVVRVSRVSLGGRERVLGDIYAPGVVGETAVLAHQERSASVRALTPVRTLMLHREHFELILRRHPRVLWNLAEMLARRVTFLNDELIAFGQNTEAALTHVFANLYRQRLAAGVPQPEVLPLGTQDIMARTSSSRETVSRVLKRLEAHNILEVSPRSVTLLDLAALEALSFEGAETD,soluble
12,GVSFFLVKEKMKGKNKLVPRLLGITKECVMRVDEKTKEVIQEWSLTNIKRWAASPKSFTLDFGDYQDGYYSVQTTEGEQIAQLIAGYIDIIL,soluble
13,GYDHKAIGITAKGAWEAVKRHFRESFNHDIQTTPFTCIGVGDMSGDVFGNGMLLSKQTKLIAAFDHRDIFIDPDPNIAESYTERMRLFQLPRSSWQDYDQTKLSKGGGIFSRTEKTITLSPEAAKAIGFAKQTGTPFEIISALLKAPVDLLWFGGIGTYIRATTETDAQVGDRANDALRITGEQVRAKVIGEGANLGVTQRGRIEYVLNGGRCNTDAIDNSAGVNCSDVEVNIKIVLASALRAKTLTRETRNELLKKMTPQVEQLVLRNNYLQTLALSLAESQSAADL,not soluble
14,GYMDLMPFINKAGCECLNESDEHGFDNCLRKDTTFLESDCDEQLLITVAFNQPVKLYSMKFQGPDNGQGPKYVKIFINLPRSMDFEEAERSEPTQALELTEDDIKEDGIVPLRYVKFQNVNSVTIFVQSNQGEEETTRISYFTFIGTPVQATNMNDFK,soluble
15,GYSNAGLVNNLAGKLIANYWLDKVYSKEEGYAHRNGDVHIHDLDCLTGYCAGWSLRSLLNEGFNGVRGRVESRAPKHLREALGQMANFLGILQSEWAGAQAFSSFDTYLAPYVFRDQLEFKEIKKAIKSFVYNLNVPARWGQSPFTNVTIDWTVPADLKDQIPTRNDRHLFEDIQEDALLVQEAQKRGASSLLSMTYKYFQAEMNLINRAFYEVMTEGDKTGQPFTFPIPTVNITEDFDWHGENTDLLFENTAKIGSSYFQNFIGSQYIRNEKGELVENPEAYKPNAVRSMCCRLQLDLRELLKRGGGLFGSAEMTGSIGVVTLNMARLGYRFRGDREGLMAELTKLMDLSKSTLEKKRQAVTELFHRGLYPYTKRYLPGFNNHFSTIGVNGINEMIRNFTNDQDNISSPSGMAFATEILEFMRERIRSYQEETGNLYNLEATPAEGTTYRFAKEDKKRYPQIIQAGMEENVYYTNSSQLPANFTDDPFEALTLQDELQCKYTGGTVLHLYMREKISSAEACRKLVKTVITSYKLPYITITPVFSVCPKHGYLRGEHEYCPLCDEEALLEIEQSQCC,not soluble
16,HEHNTIPKGASIEVKVQQLDPVNGNKDVGTVTITESNYGLVFTPDLQGLSEGLHGFHIHENPSCEPKEEEGELTAGLGAGGHWDPKGAKQHGYPWQDDAHLGDLPALTVLHDGTATNPVLAPRLKHLDDVRGHSIMIHTGGDNHSDHPAPLGGGGPRMACGVIK,soluble
17,HEIPYDNTSLPAVTFMQPSAKKNLLIFGGYDSNLEELILWFSPLRNNGYNLIIFDGPGQGNMLFKKEKSHFIMNFEKPVAAVLDYFSLDRVAALGLSWGGFFVMRAAAFEKRIEKIIALDIFYQGLDALTIAMNPVLAFIFKTLVNFKCKTWIDVLLTHAMTRDLDLNWKIKRGYQLTGTKTPYDLIQNIKKHNMKGLGPLINQEVLLLAGEKDQYVPVKRLGQIKKELSNAAEIKTHLFTQESGGEQHCQAGSNLALLAIKDFLK,not soluble
18,HENPEGIIRIYASTTPGEHILPSIIKEYKSSYKNVDFEITITDSERCFKALDEGLADIAAVGYLKNKNYEYTIIGKDRLVLIVPPNHPLAEKGTAKLEDILKEDYIDREEGSGTREAFIKALNDKGYSIMDLNVVMRLGSHSAVI,not soluble
19,HGPAEISDLDRQIEQLRRCELIKESEVKALCAKAREILVEESNVQRVDSPVTVCGDIHGQFYDLKELFRVGGDVPETNYLFMGDFVDRGFYSVETFLLLLALKVRYPDRITLIRGNHESRQITQVYGFYDECLRKYGSVTVWRYCTEIFDYLSLSAIIDGKIFCVHGGLSPSIQTLDQIRTIDRKQEVPHDGPMCDLLWSDPEDTTGWGVSPRGAGYLFGSDVVAQFNAANDIDMICRAHQLVMEGYKWHFNETVLTVWSAPNYCYRCGNVAAILELDEHLQKDFIIFEAAPQETVRASSPSPL,soluble
20,HHHHHHFADLVIQVIDELKQFGVSVKTYGAKGDGVTDDIRAFEKAIESGFPVYVPYGTFMVSRGIKLPSNTVLTGAGKRNAVIRFMDSVGRGESLMYNENVTTGNENIFLSSFTLDGNNKRLGQGISGIGGSRESNLSIRACHNVYIRDIEAVDCTLHGIDITCGGLDYPYLGDGTTAPNPSENIWIENCEATGFGDDGITTHHSQYINILNCYSHDPRLTANCNGFEIDDGSRHVVLSNNRSKGCYGGIEIKAHGDAPAAYNISINGHMSVEDVRSYNFRHIGHHAATAPQSVSAKNIVASNLVSIRPNNKRGFQDNATPRVLAVSAYYGVVINGLTGYTDDPNLLTETVVSVQFRARNCSLNGVVLTGFSNSENGIYVIGGSRGGDAVNISNVTLNNSGRYGVSIGSGIENVSITNISGIGDGINSPVALVSTINSNPEISGLSSIGYPTVARVAGTDYNDGLTLFNGAFRASTTSSGKIHSEGFIMGSTSGCEASVSKSGVLTSSSSKTSSERSLIAGSSTSEAKGTYNTILGSLGAVADEQFAALISASQSRASGNHNLILSSYGINTTGSYKVNGGFEKINWELDSLNGRIKARDTVTGGNTWSDFAEYFESLGGQVIETGYLVTLEKGKIRKAEKGEKIIGVISETAGFVLGESSFEWQGAVLKNEFGGIIYEEVTTEDGVKFKRPLPNPDFDPNKNYIPRSQRREWHVVGLLGQIAVRIDETVKQGHSIDAVGGVATDGDNFIVQEITTPYTKEKGYGVAIVLVK,soluble
21,HHHHHHMQHLVLIGFMGSGKSSLAQELGLALKLEVLDTDMIISERVGLSVREIFEELGEDNFRMFEKNLIDELKTLKTPHVISTGGGIVMHENLKGLGTTFYLKMDFETLIKRLNQKEREKRPLLNNLTQAKELFEKRQALYEKNASFIIDARGGLNNSLKQVLQFIA,soluble
22,HHHHHHTDPALRAAQQTPLYEQHTLCGARMVDFHGWMMPLHYGSQIDEHHAVRTDAGMFDVSHMTIVDLRGSRTREFLRYLLANDVAKLTKSGKALYSGMLNASGGVIDDLIVYYFTEDFFRLVVNSATREKDLSWITQHAEPFGIEITVRDDLSMIAVQGPNAQAKAATLFNDAQRQAVEGMKPFFGVQAGDLFIATTGYTGEAGYEIALPNEKAADFWRALVEAGVKPCGLGARDTLRLEAGMNLYGQEMDETISPLAANMGWTIAWEPADRDFIGREALEVQREHGTEKLVGLVMTEKGVLRNELPVRFTDAQGNQHEGIITSGTFSPTLGYSIALARVPEGIGETAIVQIRNREMPVKVTKPVFVRNGKAVAGLCGR,soluble
23,HKCDITLQEIIKDLNSLTEQKTLCTELTVTDIFAASKNTTEKETFCRAATVLRQFYSHHEKDTRCLGATAQQFHRHKQLIRDLKRLDRNLWGLAGLNSCPVKEANQSTLENFLERLKTIMREKYSKCSS,soluble
24,HKFIRTAIDMDKNRAFSSRLRQSIKDYFDMPWYLTFADAERLSDLRDEALVLRDDEVTGQVPMEVEYEEFQQVNDELSERIGDMLKAHKEQGTPIDLSVVLRDYLAQHPYTHHFDLARIIVDQAVRLGYSESDYQAIQPDWKAINEFGAKVQANVIDRY,soluble
25,HMSNFTGLKVLVMDENGVSRMVTKGLLVHLGCEVTTVSSNEECLRVVSHEHKVVFMDVCMPGVENYQIALRIHEKFTKQRHQRPLLVALSGNTDKSTKEKCMSFGLDGVLLKPVSLDNIRDVLSDLLEPRVLYEGM,soluble
26,HPKLVSSTPAEGSEGAAPAKIELHFSENLVTQFSGAKLVMTAMPGMEHSPMAVKAAVSGGGDPKTMVITPASPLTAGTYKVDWRAVSSDTFPITGSVTFKVK,soluble
